In data set [1] the target is T1, Aryl Alcohol Oxidase (AAOx) (Pleurotus eryngii, UniProt O94219).
T1 construct: gene aao; N-terminal His-tag, pET-15b, E. coli BL21-GOLD; FAD added during purification; IMAC and SEC
T1 sequence (O94219 22-593): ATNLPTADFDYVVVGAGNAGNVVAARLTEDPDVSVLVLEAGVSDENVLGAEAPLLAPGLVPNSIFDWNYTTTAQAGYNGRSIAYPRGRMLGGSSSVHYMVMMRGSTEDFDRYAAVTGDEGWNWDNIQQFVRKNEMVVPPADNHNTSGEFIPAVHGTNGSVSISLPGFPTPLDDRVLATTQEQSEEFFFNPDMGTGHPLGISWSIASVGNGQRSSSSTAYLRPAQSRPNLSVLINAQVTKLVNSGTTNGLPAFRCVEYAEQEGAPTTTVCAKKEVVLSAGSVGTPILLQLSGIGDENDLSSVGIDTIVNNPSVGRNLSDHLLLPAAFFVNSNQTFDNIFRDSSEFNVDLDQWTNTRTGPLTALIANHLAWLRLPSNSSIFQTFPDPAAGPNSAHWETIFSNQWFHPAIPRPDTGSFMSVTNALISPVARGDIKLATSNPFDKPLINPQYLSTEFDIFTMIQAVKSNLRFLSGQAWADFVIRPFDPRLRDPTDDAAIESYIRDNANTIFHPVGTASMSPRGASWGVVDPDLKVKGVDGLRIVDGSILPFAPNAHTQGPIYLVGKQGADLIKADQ
Description: absorbance of cinnamyl aldehyde at […] nm. It counts as biochemical. The following applies: 5 nM enzyme, 250 µM substrate, pH 5.5-7.5, 10 mM ionic strength Tris/Bis-Tris, 30 mM NaCl.

Substrate in data set [2]: CCCC(=O)Oc1ccc2c(C)cc(=O)oc2c1
Briefly: fluorescence of released 4-methylumbelliferone, initial rates, Michaelis-Menten fit. It counts as biochemical, Geobacillus thermocatenulatus. Conditions: homogeneous enzyme, 0.5 µM, 24 mM Tris, 10 mM NaCl, pH 7.5, substrate solubility kept concentrations below the KM. The text has this: fluorescence of released 4-methylumbelliferone, initial rates, Michaelis-Menten fit on BTL2 (Bacillus thermocatenulatus Lipase 2)

Here are results for 2 molecules from PMC12246476, “Enhancement of enzymatic activity by biomolecular condensates through pH buffering” (Nature Communications, 2025).

What is called Km is the substrate concentration at which the rate is half of its maximum. Usually Vmax stands for the rate approached at saturating substrate. In general, kcat refers to the maximal rate divided by the concentration of active sites.

Regarding `OC/C=C/c1ccccc1` [CAlc, Cinnamyl Alcohol], in data set [1], the “absorbance of cinnamyl aldehyde at 310 nm” value is “measuring the rate of the oxidation reaction of CAlc to CAld catalyzed by AAOx”.

B1: BTL2 (Bacillus thermocatenulatus Lipase 2) (Geobacillus thermocatenulatus) (protein)
chain: ASPRANDAPIVLLHGFTGWGREEMLGFKYWGGVRGDIEQWLNDNGYRTYTLAVGPLSSNWDRACEAYAQLVGGTVDYGAAHAAKHGHARFGRTYPGLLPELKRGGRVHIIAHSQGGQTARMLVSLLENGSQEEREYAKAHNVSLSPLFEGGHHFVLSVTTIATPHDGTTLVNMVDFTDRFFDLQKAVLKAAAVASNVPYTSQVYDFKLDQWGLRRQPGESFDHYFERLKRSPVWTSTDTARYDLSIPGAEKLNQWVQASPNTYYLSFSTERTHRGALTGNYYPELGMNAFSAVVCAPFLGSYRNEALGIDDRWLENDGIVNTVSMNGPKRGSSDRIVPYDGTLKKGVWNDMGTCNVDHLEVIGVDPNPSFDIRAFYLRLAEQLASLRP
notes: N-terminal His-tag, pET-15b, E. coli BL21-GOLD; IMAC and SEC
Consider B1, for which, in data set [2], the Km turned out to be 713 ± 281 µM, the Vmax was 126 µM/min and the kcat is 4.3 ± 1.2 s⁻¹.
